Laboratory results published in PMC2383916.
Read-outs that look alike come from different tables or passages of the source. One block for each molecule: values may come before it.

Legend:
[1] = biological target: GAL4-PER2 (mouse) (UniProt O54943); experiment: two-hybrid; mammalian two-hybrid in HER911 cells: Gal4 DBD fusion and VP16 fusion co-transfected with the GAL4-based luciferase reporter pFR-luc and pCMV-lacZ; luciferase normalised to beta-galactosidase; reporter alone set to 1
[2] = biological target: GAL4-PER2 (mouse) (UniProt O54943); experiment: two-hybrid; mammalian two-hybrid in cos-7 cells: Gal4 DBD fusion and VP16 fusion co-transfected with pFR-luc and pCMV-lacZ; reporter alone set to 1
[3] = biological target: GAL4-CRY1 (mouse) (UniProt P97784); experiment: two-hybrid; mammalian two-hybrid in HER911 cells: Gal4 DBD fusion and VP16 fusion co-transfected with the GAL4-based luciferase reporter pFR-luc and pCMV-lacZ; luciferase normalised to beta-galactosidase; reporter alone set to 1
[4] = biological target: GAL4-CRY2 (mouse) (UniProt Q9R194); experiment: as above
[5] = biological target: GAL4-CRY1 (mouse) (UniProt P97784); experiment: two-hybrid; mammalian two-hybrid in cos-7 cells: Gal4 DBD fusion and VP16 fusion co-transfected with pFR-luc and pCMV-lacZ; reporter alone set to 1
[6] = biological target: GAL4-CRY2 (mouse) (UniProt Q9R194); experiment: as above
[7] = biological target: GAL4-BMAL1ΔPAS B/C-term (mouse); experiment: two-hybrid; mammalian two-hybrid in HER911 cells: Gal4 DBD fusion and VP16 fusion co-transfected with the GAL4-based luciferase reporter pFR-luc and pCMV-lacZ; luciferase normalised to beta-galactosidase; reporter alone set to 1
[8] = biological target: GAL4-BMAL1 (mouse); experiment: as above
[9] = biological target: GAL4-CLOCK (mouse) (UniProt O08785); experiment: as above
[10] = biological target: GAL4-BMAL1ΔC-term (mouse); experiment: as above
[11] = biological target: GAL4-BMAL1 (mouse); experiment: two-hybrid; mammalian two-hybrid in cos-7 cells: Gal4 DBD fusion and VP16 fusion co-transfected with pFR-luc and pCMV-lacZ; reporter alone set to 1
[12] = biological target: GAL4-BMAL1ΔHLH/PAS A (mouse); experiment: two-hybrid; mammalian two-hybrid in HER911 cells: Gal4 DBD fusion and VP16 fusion co-transfected with the GAL4-based luciferase reporter pFR-luc and pCMV-lacZ; luciferase normalised to beta-galactosidase; reporter alone set to 1
[13] = biological target: GAL4-BMAL1 (mouse); experiment: as above; remark: listed apart in the source
[14] = biological target: GAL4-BMAL1ΔC-term (mouse); experiment: as above; remark: listed apart in the source

UniProt O54943, sequence (O54943 whole entry, the tested form may be a part): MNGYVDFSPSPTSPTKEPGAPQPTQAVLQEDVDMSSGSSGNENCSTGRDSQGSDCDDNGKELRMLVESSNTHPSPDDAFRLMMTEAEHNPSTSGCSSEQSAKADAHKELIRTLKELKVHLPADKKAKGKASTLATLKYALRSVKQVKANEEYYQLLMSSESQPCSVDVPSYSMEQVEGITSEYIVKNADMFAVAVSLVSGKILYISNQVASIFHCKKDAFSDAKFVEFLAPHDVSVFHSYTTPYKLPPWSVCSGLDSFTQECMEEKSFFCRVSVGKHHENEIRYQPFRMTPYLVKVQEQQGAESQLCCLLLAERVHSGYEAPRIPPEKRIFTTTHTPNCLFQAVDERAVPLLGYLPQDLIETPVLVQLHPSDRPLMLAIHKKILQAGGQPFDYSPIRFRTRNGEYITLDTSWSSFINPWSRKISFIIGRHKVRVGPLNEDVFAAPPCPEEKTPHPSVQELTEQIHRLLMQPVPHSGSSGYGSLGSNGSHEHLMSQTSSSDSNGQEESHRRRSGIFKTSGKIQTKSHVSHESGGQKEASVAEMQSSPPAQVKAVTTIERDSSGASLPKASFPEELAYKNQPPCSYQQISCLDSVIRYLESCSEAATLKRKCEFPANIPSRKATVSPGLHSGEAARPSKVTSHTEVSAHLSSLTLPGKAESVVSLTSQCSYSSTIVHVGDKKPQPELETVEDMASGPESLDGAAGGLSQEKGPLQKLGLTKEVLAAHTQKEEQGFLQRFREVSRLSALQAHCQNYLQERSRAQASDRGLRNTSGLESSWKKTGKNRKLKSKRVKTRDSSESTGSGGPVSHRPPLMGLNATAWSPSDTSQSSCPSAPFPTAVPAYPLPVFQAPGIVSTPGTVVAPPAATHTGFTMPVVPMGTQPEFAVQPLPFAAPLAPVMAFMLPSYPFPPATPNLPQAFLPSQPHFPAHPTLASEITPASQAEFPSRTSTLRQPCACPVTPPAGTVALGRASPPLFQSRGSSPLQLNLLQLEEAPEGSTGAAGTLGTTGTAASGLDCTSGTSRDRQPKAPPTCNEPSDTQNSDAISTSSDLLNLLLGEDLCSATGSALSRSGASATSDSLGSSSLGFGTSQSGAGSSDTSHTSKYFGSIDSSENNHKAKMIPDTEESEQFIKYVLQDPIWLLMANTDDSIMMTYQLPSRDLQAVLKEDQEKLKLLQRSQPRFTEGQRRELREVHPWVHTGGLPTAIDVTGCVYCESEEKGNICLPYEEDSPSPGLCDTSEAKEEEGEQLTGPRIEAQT
UniProt O08785, sequence (O08785 whole entry, the tested form may be a part): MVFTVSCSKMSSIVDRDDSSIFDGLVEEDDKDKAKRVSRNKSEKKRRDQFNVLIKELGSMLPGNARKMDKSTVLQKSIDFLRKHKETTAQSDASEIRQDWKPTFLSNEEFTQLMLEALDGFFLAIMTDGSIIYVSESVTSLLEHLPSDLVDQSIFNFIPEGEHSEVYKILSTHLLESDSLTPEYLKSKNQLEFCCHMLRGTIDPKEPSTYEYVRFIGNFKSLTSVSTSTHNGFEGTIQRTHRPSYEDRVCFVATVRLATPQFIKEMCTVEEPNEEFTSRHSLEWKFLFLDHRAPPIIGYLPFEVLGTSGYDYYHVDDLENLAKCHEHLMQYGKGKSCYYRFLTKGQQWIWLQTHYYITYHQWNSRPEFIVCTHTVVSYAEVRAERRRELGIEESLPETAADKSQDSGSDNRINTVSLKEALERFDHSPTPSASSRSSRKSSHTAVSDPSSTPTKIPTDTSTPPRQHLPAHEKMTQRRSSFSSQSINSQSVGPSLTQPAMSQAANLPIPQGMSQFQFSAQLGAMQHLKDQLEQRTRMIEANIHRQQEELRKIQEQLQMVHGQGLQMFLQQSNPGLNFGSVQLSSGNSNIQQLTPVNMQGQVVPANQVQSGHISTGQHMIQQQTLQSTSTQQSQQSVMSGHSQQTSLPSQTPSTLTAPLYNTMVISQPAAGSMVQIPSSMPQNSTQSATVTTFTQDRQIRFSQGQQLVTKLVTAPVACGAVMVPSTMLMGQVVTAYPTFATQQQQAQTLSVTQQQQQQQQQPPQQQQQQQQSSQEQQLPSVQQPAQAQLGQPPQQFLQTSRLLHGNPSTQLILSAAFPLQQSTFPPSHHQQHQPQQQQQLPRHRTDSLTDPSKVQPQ

fold luciferase activity over reporter alone [1]: 110 fold | fold luciferase activity over reporter alone [2]: 55 fold
Molecule: CLOCK-VP16 (from UniProt O08785 1-855) (natural protein)

fold luciferase activity over reporter alone [3]: 70 fold | fold luciferase activity over reporter alone [1]: 110 fold | fold luciferase activity over reporter alone [4]: 10 fold | fold luciferase activity over reporter alone [5]: 450 fold | fold luciferase activity over reporter alone [2]: 2900 fold | fold luciferase activity over reporter alone [6]: 125 fold
Molecule: BMAL1-VP16 (natural protein)

fold luciferase activity over reporter alone [7]: 5 fold | fold luciferase activity over reporter alone [8]: 1000 fold | fold luciferase activity over reporter alone [9]: 75 fold | fold luciferase activity over reporter alone [10]: 150 fold | fold luciferase activity over reporter alone [11]: 200 fold
Molecule: PER2-VP16 (from UniProt O54943 1-1257) (natural protein)

fold luciferase activity over reporter alone [11]: 70 fold | fold luciferase activity over Gal4-Bmal1ΔHLH/PAS A alone [12]: 3 fold | fold luciferase activity over reporter alone [13]: 950 fold
B1: CRY2-VP16 (natural protein)
chain: MAAAAVVAATVPAQSMGADGASSVHWFRKGLRLHDNPALLAAVRGARCVRCVYILDPWFAASSSVGINRWRFLLQSLEDLDTSLRKLNSRLFVVRGQPADVFPRLFKEWGVTRLTFEYDSEPFGKERDAAIMKMAKEAGVEVVTENSHTLYDLDRIIELNGQKPPLTYKRFQALISRMELPKKPAVAVSSQQMESCRAEIQENHDDTYGVPSLEELGFPTEGLGPAVWQGGETEALARLDKHLERKAWVANYERPRMNANSLLASPTGLSPYLRFGCLSCRLFYYRLWDLYKKVKRNSTPPLSLFGQLLWREFFYTAATNNPRFDRMEGNPICIQIPWDRNPEALAKWAEGKTGFPWIDAIMTQLRQEGWIHHLARHAVACFLTRGDLWVSWESGVRVFDELLLDADFSVNAGSWMWLSCSAFFQQFFHCYCPVGFGRRTDPSGDYIRRYLPKLKGFPSRYIYEPWNAPESVQKAAKCIIGVDYPRPIVNHAETSRLNIERMKQIYQQLSRYRGLCLLASVPSCVEDLSHPVAEPGSSQAGSISNTGPRALSSGPASPKRKLEAAEEPPGEELTKRARVTEMPTQEPASKDS

fold luciferase activity over reporter alone [11]: 110 fold | fold luciferase activity over reporter alone [13]: 750 fold | fold luciferase activity over reporter alone [14]: 50 fold
B2: CRY1-VP16 (natural protein)
chain: MGVNAVHWFRKGLRLHDNPALKECIQGADTIRCVYILDPWFAGSSNVGINRWRFLLQCLEDLDANLRKLNSRLFVIRGQPADVFPRLFKEWNITKLSIEYDSEPFGKERDAAIKKLATEAGVEVIVRISHTLYDLDKIIELNGGQPPLTYKRFQTLVSKMEPLEMPADTITSDVIGKCMTPLSDDHDEKYGVPSLEELGFDTDGLSSAVWPGGETEALTRLERHLERKAWVANFERPRMNANSLLASPTGLSPYLRFGCLSCRLFYFKLTDLYKKVKKNSSPPLSLYGQLLWREFFYTAATNNPRFDKMEGNPICVQIPWDKNPEALAKWAEGRTGFPWIDAIMTQLRQEGWIHHLARHAVACFLTRGDLWISWEEGMKVFEELLLDADWSINAGSWMWLSCSSFFQQFFHCYCPVGFGRRTDPNGDYIRRYLPVLRGFPAKYIYDPWNAPEGIQKVAKCLIGVNYPKPMVNHAEASRLNIERMKQIYQQLSRYRGLGLLASVPSNSNGNGGLMGYAPGENVPSCSSSGNGGLMGYAPGENVPSCSGGNCSQGSGILHYAHGDSQQTHSLKQGRSSAGTGLSSGKRPSQEEDAQSVGPKVQRQSSN
